Data on five substances can be found in article PMC2174365.

Read-outs that look alike come from different tables or passages of the source.

Assay [1] addresses microtubules (taxol-stabilized; polymer of alpha- and beta-tubulin).
Assay [2] addresses sea urchin sperm flagellar axonemes (sea urchin). The experiment in a line: single-molecule fluorescence motility assay.
The target is the same in assay [3]. The experiment in a line: single-molecule fluorescence motility assay. The source holds these as a separate data set.
The target is the same in assay [4]. As to the kind of experiment: single-molecule fluorescence motility assay. The source holds these as a separate data set.
Assay [5] has the same target. As to the kind of experiment: optical trapping bead assay.

On to “Cys330/Cys4 Cys-light K560-GFP (neck linker mutant Ser330Cys/Leu4Cys) (from UniProt P33176 1-560) (domain or fragment)”, for which, in assay [1], the Km(MT) of the microtubule-stimulated ATPase, NEM-modified control turned out to be 0.45 μM tubulin; the Km(MT) of the microtubule-stimulated ATPase, with 200 μM DTNB is 2.35 μM tubulin; the Km(MT) of the microtubule-stimulated ATPase, without DTNB came out at 0.57 μM tubulin.

With “Cys334/Cys222 Cys-light K560-GFP (neck linker mutant Glu334Cys/Lys222Cys) (from UniProt P33176 1-560) (domain or fragment)”, in assay [1], the Km(MT) of the microtubule-stimulated ATPase, NEM-modified control turned out to be 1.51 μM tubulin; the Km(MT) of the microtubule-stimulated ATPase, with 200 μM DTNB was 2.36 μM tubulin; the Km(MT) of the microtubule-stimulated ATPase, without DTNB is 0.62 μM tubulin.

With “Cys337 Cys-light K560-GFP (neck coiled-coil mutant Ala337Cys) (from UniProt P33176 1-560) (domain or fragment)”, the association time in assay [2] worked out at 3.7 s.

In the case of “Cys337/Cys344 Cys-light K560-GFP (neck coiled-coil double mutant Ala337Cys/Tyr344Cys) (from UniProt P33176 1-560) (domain or fragment)”, the association time in assay [3] is 2.5 s; in assay [4], 3.8 s.

With “Cys344 Cys-light K560-GFP (neck coiled-coil mutant Tyr344Cys) (from UniProt P33176 1-560) (domain or fragment)”, in assay [5], the fold change of the dissociation rate under load (with DTNB against without DTNB) worked out at 1.2 fold. In addition, the frequency of movement/binding in assay [2] and in assay [4] was 2 /min/μm/nM throughout.
